{"source": "patent US20130244255A1", "about": "(published 2013)", "binders": {"B1": {"name": "CR011 mAb 1.15.1 (IgG2) (antibody)", "heavy": "QVQLQESGPGLVKPSQTLSLTCTVSGGSISSFNYYWSWIRHHPGKGLEWIGYIYYSGSTYSNPSLKSRVTISVDTSKNQFSLTLSSVTAADTAVYYCARGYNWNYFDYWGQGTLVTVSSASTKGPSVFPLAPCSRSTSESTAALGCLVKDYFPEPVTVSWNSGALTSGVHTFPAVLQSSGLYSLSSVVTVPSSNFGTQTYTCNVDHKPSNTKVDKTVERKCCVECPPCPAPPVAGPSVFLFPPKPKDTLMISRTPEVTCVVVDVSHEDPEVQFNWYVDGVEVHNAKTKPREEQFNSTFRVVSVLTVVHQDWLNGKEYKCKVSNKGLPAPIEKTISKTKGQPREPQVYTLPPSREEMTKNQVSLTCLVKGFYPSDIAVEWESNGQPENNYKTTPPMLDSDGSFFLYSKLTVDKSRWQQGNVFSCSVMHEALHNHYTQKSLSLSPGK", "VL": "not shown", "notes": "also called CR011.1.15.1; CR011 IgG2"}}, "key": {"[1]": {"biological_target": "T1, GPNMB (CG56972) as expressed by human cell lines (human, UniProt Q14956 23-492)", "T1 construct": "Endogenous or transfected full-length protein on cells (FACS, killing assays) or in cell lysates (immunoprecipitation, blot); also called native GPNMB protein", "T1 sequence": "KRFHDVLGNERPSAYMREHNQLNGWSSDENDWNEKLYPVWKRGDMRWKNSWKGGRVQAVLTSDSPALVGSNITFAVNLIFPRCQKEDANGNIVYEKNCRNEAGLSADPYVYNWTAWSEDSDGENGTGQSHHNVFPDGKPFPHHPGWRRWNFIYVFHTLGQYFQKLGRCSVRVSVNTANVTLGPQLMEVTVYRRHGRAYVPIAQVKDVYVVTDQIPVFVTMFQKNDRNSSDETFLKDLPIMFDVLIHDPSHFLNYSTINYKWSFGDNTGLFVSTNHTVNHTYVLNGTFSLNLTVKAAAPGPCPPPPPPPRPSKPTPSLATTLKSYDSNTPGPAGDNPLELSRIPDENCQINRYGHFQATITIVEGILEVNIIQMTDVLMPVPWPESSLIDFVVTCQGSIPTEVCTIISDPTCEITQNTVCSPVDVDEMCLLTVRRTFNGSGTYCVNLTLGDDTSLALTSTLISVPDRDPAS", "experiment": "FACS on SU-DHL-1 cells, antibody 1 ug/mL", "protocol": "(§1) Lymphoma or leukemia derived cells were washed twice with ice-cold FACS buffer and resuspended at 1 million cells per assay tube. […] Cells were then washed 2-3 times and resuspended in 1 mL of ice-cold FACS buffer. R-PE-conjugated goat anti-human antibody at 1:100 dilution was added and cells were incubated on ice for 30 min. Cells were washed 3 times with 1 mL of ice-cold FACS buffer, fixed with 0.5-1 mL of 1% formaldehyde in PBS and analyzed by Flow Cytometry."}, "[2]": {"biological_target": "T1, GPNMB (CG56972) as expressed by human …", "experiment": "FACS on K562 cells, antibody 1 ug/mL", "protocol": "as §1"}, "[3]": {"biological_target": "T1, GPNMB (CG56972) as expressed by human …", "experiment": "FACS on SK-Mel 5 cells"}, "[4]": {"biological_target": "T1, GPNMB (CG56972) as expressed by human …", "experiment": "FACS on MEWO cells"}, "[5]": {"biological_target": "T1, GPNMB (CG56972) as expressed by human …", "experiment": "FACS on SF-539 cells, CR011 10 ug/mL", "protocol": "(§2) Quantitative analysis of CG56972 expression on the surface of cell lines was determined by flow cytometry (FACS). […] Cells were fixed in 1% paraformaldehyde/PBS and examined on a Becton Dickinson FACSCalibur flow cytometer. Data analysis was performed with Becton Dickinson Cell Quest software version 3.3 and the geometric mean fluorescence intensity ratio (GMR) was determined for each cell type.\n(§3) Geometric Mean ratios (GMR) were determined by flow cytometric analysis."}, "[6]": {"biological_target": "T1, GPNMB (CG56972) as expressed by human …", "experiment": "FACS on UACC-62 cells"}, "[7]": {"biological_target": "T1, GPNMB (CG56972) as expressed by human …", "experiment": "FACS on XF-498, U-118-MG, SNB-78 and SF-539 cells", "protocol": "as §2"}, "[8]": {"biological_target": "T1, GPNMB (CG56972) as expressed by human …", "experiment": "FACS on MV4-11 cells, antibody 1 ug/mL"}, "[9]": {"biological_target": "T1, GPNMB (CG56972) as expressed by human …", "experiment": "FACS on U-118-MG cells, CR011 10 ug/mL", "protocol": "as §2, §3"}}}
{"binder": "B1", "values": [{"measurement": "Geo Mean Ratio", "setting": "[1]", "value": 4.8, "unit": "ratio"}, {"measurement": "Geo Mean Ratio", "setting": "[2]", "value": 2.8, "unit": "ratio"}, {"measurement": "Geo Mean Ratio (relative to isotype)", "setting": "[3]", "value": 5.7, "unit": "ratio"}, {"measurement": "Geo Mean Ratio (relative to isotype)", "setting": "[4]", "value": 14.1, "unit": "ratio"}, {"measurement": "CR011 Fold Shift (GMR)", "setting": "[5]", "value": 5.4, "unit": "fold"}, {"measurement": "Geo Mean Ratio (relative to isotype)", "setting": "[6]", "value": 5.5, "unit": "ratio"}, {"measurement": "surface staining, fold above isotype control mAb background", "setting": "[7]", "value": "≥ 1.5", "unit": "fold"}, {"measurement": "Geo Mean Ratio", "setting": "[8]", "value": 1.9, "unit": "ratio"}, {"measurement": "CR011 Fold Shift (GMR)", "setting": "[9]", "value": 7.4, "unit": "fold"}]}
